Kd data for 1 molecule are collected here from US12221483 (CHINA MEDICAL UNIVERSITY HOSPITAL, dated 2025).

The target in the experiment is T1, recombinant CD3E protein (UniProt P07766 23-126, limits assumed).
T1 construct: also called CD3ε; CD3 epsilon
Put plainly: SPR (BIAcore T200); fusion protein on exosomes (1x10^11) coated on CM5 chip, recombinant CD3E protein as analyte at 700-21.9 nM; fusion protein (1×10^11) coated on CM5 chip; recombinant CD3E as analyte. (In SPR one partner is held on a chip, and binding of the other changes the refractive index at the surface.)

T1 sequence (P07766 23-126 limits assumed): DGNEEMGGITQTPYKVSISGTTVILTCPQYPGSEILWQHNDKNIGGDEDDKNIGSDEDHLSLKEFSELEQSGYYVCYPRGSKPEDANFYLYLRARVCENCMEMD

B1: fusion protein comprising anti-CD3 single domain antibody and exosomal protein CD63 (other)
chain: MAVEGGMKCVKFLLYVLLLAFCACAVGLIAVGVGAQLVLSQTIIQGATPGSLLPVVIIAVGVFLFLVAFVGCCGACKENYCLMITFAIFLSLIMLVEVAAAIAGYVFRDKVMSEFNNNFRQQMENYPKNNHTASAHVQLVESGGGSVQAGGSLRLSCTVSGVIFKNEYMGWFRQAPGKEREGVAAASPGGTITYYGDSVKGRFTISRDNAKNTVYLQMNRLKPEDTAMYYCALDPSTTSWSIIRHGPSLWRYSGRGTQVTVSSGSSILDRMQADFKCCGAANYTDWEKIPSMSKNRVPDSCCINVTVGCGINFNEKAIHKEGCVEKIGGWLRKNVLVVAAAALGIAFVEVLGIVFACCLVKSIRSGYEVM
notes: in the SPR assay the exosomes carrying the fusion protein (1x10^11) were coated on a CM5 chip; also called anti-CD3 single domain antibody-CD63 chimeric protein; CD3ε Nb-Exo
As usually defined, the Kd is the concentration at which binding is half-saturated. Turning to B1, the dissociation constant Kd amounted to 2.1 nM.
